Assay results from patent USRE46585 (LABORATOIRE FRANCAIS DU FRACTIONNEMENT ET DES …, dated 2017).

What was measured:
[1] = target: T1, FcRn-p3 fusion protein (human, UniProt P55899 24-297; P61769 21-119); assay: phage ELISA pH6
T1 construct: baculovirus expressed; coated on ELISA wells; not shown: amino terminal part of bacteriophage p3 protein and CVDE protein

[2] = target: T1, FcRn-p3 fusion protein; assay: phage ELISA pH6 (est.)

Ratio/Fc-H [1] | Ratio/FWT [2] | Binder
1.7 fold | 5.5 fold | C8A_61 (other, EU numbering) CPPCTAPELLGGPSVFLFPPKPKDTLMISRTPEVTCVVEDVSHEDPEVKFNWYVDGVEVHNAKTKPREEQYNSTYRVVSVLTVLHQDWLNGKEYKCKVSNKALPAPIEKTISKAKGQPREPQVYTLPPSRDELTKNQVSLTCLVKGFYPSDIAVEWESNGQPENNYKTTPLVLDSDGSFFLYSKLTVDKSRWQQGNVFSCSVMHEALHYHYTQKSLSLSPGK
1.2 fold | 3.8 fold | M3B_23 (other, EU numbering) CPPCPAPELLGGPSVLLFPPKPKDTLMISRTPEVTCVVEDVSHEDPEVKFNWYVDGVEVHNAKTKPREEQYNSTYRVVSVLPVLHQDWLNGKEYKCKVSNKALPAPIEKTISKAKGQPREPQVYTLPPSRDELTKNQVSLTCLVKGFYPSDIAVEWESNGQPENNYKTTPPVLDSDGSFFLYSKLTVDKSRWQQGNVFSCSVMHEALHNHYTQKSLSLSPGK
1.1 fold | 3.4 fold | T3A_30 (other, EU numbering) CPPCPAPELLGGPSVFLFPPKPKDTLMISRTPEVTCVVEDVSHEDPEVKFNWYVDGVEVHNAKTKPREEQYNSTYRVVSVLTVLHQDWLNGKEYKCKVSNKALPAPIEKTISKAKGQPREPQVYTLPPSRDELTKNQVSLTCLVKGFYPSDIVVEWESNGQPENNYKTTPPVLDSDGSFFLYSKLTVDKSRWQQGNAFSCSVMHEALHNHYTQKSLSLSPGK
1.8 fold | 5.6 fold | T3A_13 (other, EU numbering) CPPCPAPELLGGPSVFLFPPKPKDTLMISRTPEVTCVVVDVSHEDPEVKFNWYVDGVEVHNAKTKPREEQYNSTYRVVSVLTVLHQDWLDGKEYKCKVSNKALPAPIEKTISKAKGQPREPQVYTLPPSRDELTKNQVSLTCLAKGFYPSDIAVEWESNGQPENNYKTTPPVLDSDGSFFLYSKLTVDKSRWQQGNVFSCSVMHEALHYHYTQKSLSLSPGK
1.8 fold | 5.7 fold | M3A_06 (other, EU numbering) CPPCPAPELLGGPSVLLFPPKPKDTLMISRTPEVTCVVEDVSHEDPEVKFNWYVDGVEVHNAKTKPREEQYNSTYRVVSVLTVLHQDWLNGKEYKCKVSNKALPAPIEKTISKAKGQPREPQVYTLPPSRDELTKNQVSLTCLVKGFYPSDITVEWESNGQPENNYKTTPPMLDSDGSFFLYSKLTVDKSRWQQGNVFSCSVMHEALHNHYTQKSLSLSPGK
1.8 fold | 5.6 fold | M3A_26 (other, EU numbering) CPPCPAPELLGGPSVFLFPPKPKDTLMISRTPEVTCVVEDVSHEDPEVKFNWYVDGVEVHNAKTKPREEQYNSTYRVVSVLPVLHQDWLNGKEYKCKVSNKALPAPIEKTISKAEGRPREPQVYTLPPSRDELTKNQVSLTCLVKGFYPSDIVVEWESNGQPENNYKTTPPVLDSDGSFFLYSKLTVDKSRWQQGNVFSCSVMHEALHNHYTQKSLSLSPGK
1.9 fold | 6.2 fold | M3A_18 (other, EU numbering) CPPCPAPELLGGPSVFLFPPKPKDTLMISRTPEVTCVVVDVSHEDPEVKFNWYVDGVEVHNAKTKPREEQYNSTYRVVSVLPVLHQDWLNGKEYKCKVSNKALPAPIEKTISKAKGQPREPQVYTLPPSRDELTKNQVSLTCLVKGFYPSDIVVEWESNGQPENNYKTTPPVLDSDGSFFLYSKLTVDKSRWQQGTVFSCSVMHEALHNHYTQKSLSLSPGK
2.4 fold | 7.8 fold | T3A_01 (other, EU numbering) CPPCPAPELLGGPSVFLFPPKPKDTLMISRTPEVTCVVEDVSHEDPEVKFNWYVDGVEVHNAKTKPREEQYNSTYRVVSVLPVLHQDWLNGKEYKCKVSNKALPAPIEKTISKAKGQPREPQVYTLPPSRDELTKNQVSLTCLVKGFYPSDIVVEWESNGQPENNYKTTPPVLDSDGSFFLYSKLTVDKSRWQQGTVFSCSVMHEALHNHYTQKSLSLSPGK
1.7 fold | 5.5 fold | M3B_04 (other, EU numbering) CPPCPAPELLGGPSVLLFPPKPKDTLMISRTPEVTCVVEDVSHEDPEVKFNWYVDGVEVHNAKTKPREEQYNSTYRVVSVLTVLHQDWLNGKEYKCKVSNKALPAPIEKTISKAKGRPREPQVYTLPPSRDELTKNQVSLTCLVKGFYPSDIVVEWESNGQPENNYKTTPPVLDSDGSFFLYSKLTVDKSRWQQGNVFSCSVMHEALHNHYTQKSLSLSPGK

The next lines start with the binder.

Binder | Ratio/Fc-H [1] | Ratio/FWT [2]
T3A_16 (other, EU numbering) CPPCPAPELLGGPSVLLFPPKPKDTLMISRTPEVTCVVEDVSHEDPEVKFNWYVDGVEVHNAKTKPREEQYNSTYRVVSVLPVLHQDWLNGKEYKCKVSNKALPAPIEKTISKAKGQPREPQVYTLPPSRDELTKNQVSLTCLVKGFYPSDIVVEWESNGQPENNYKTTPPVLDSDGSFFLYSKLTVDKSRWQQGNVFSCSVMHEALHNHYTQKSLSLSPGK | 2.3 fold | 7.4 fold
T3A_15 (other, EU numbering) CPPCPAPELLGGPSVFLFPPKPKDTLMISRTPEVTCVVEDVSHEDPEVKFNWYVDGVEVHNAKTKPREEQYNSTYRVVSVLTVLHQDWLNGKEYKCKVSNKALPAPIEKTISKAKGQPREPQVYTLPPSRDELTKNQVSLTCLVKGFYPSDIVVEWESNGQPENNYKTAPPVLDSDGSLFLYSKLTVDKSRWQQGNVFSCSVMHEALHSHYTQKSLSLSPGK | 2.8 fold | 8.9 fold
T3A_08 (other, EU numbering) CPPCPAPELLGGPSVFLFPPKPKDTLMISRTPEVTCVVEDVSHEDPEVKFNWYVDGVEVHNAKTKPREEQYNSTYRVVSVLTVLHQDWLNGKEYKCKVSNKALPAPIEKTISKAKGQPREPQVYTLPPSRDELTKNQVSLTCLVKGFYPSDIVVEWESNGQPENNYKTTPPVLDSDGSLFLYSKLTVDKSRWQQGNVFSCSVMHEALHNHYTQKSLSLSPGK | 1.1 fold | 3.5 fold
T3A_22 (other, EU numbering) CPPCPAPELLGGPSVLLFPPKPKDTLMISRTPEVTCVVEDVSHEDPEVKFNWYVDGVEVHNAKTKPREEQYNSTYRVVSVLTVLHQDWLNGKEYKCKVSNKALPAPIEKTISKAKGQPREPQVYTLPPSRDELTKNQVSLTCLVKGFYPSDIVVEWESNGQPENNYKTTPPVLDSDGSFFLYSKLTVDKSRWQQGNVFSCSVMHEALHSHYTQKSLSLSPGK | 3.8 fold | 12.2 fold
T3A_10 (other, EU numbering) CPPCPAPELLGGPSVFLFPPKPKDTLMISRTPEVTCVVVDVSHEDPEVKFNWYVDGVEVHNAKTKPREEQYNSTYRVVSVLTVLHQDWLDGKEYKCKVSNKALPVPIEKTISKAKGQPREPQVYTLPPSRDELTKNQVSLTCLVKGFYPSDIAVEWESNGQPEKNYKTTPPVLDSDGSFFLYSKLTVDKSRWQQGNVFSCSVMHEALHYHYTQKSLSLSPGK | 2.4 fold | 7.8 fold
M3A_34 (other, EU numbering) CPPCPAPELLGGPSVFLFPPKPKDTLMISRTPEVTCVVVDVNHEDPEVKFNWYVDGVEVHNAKTKPREEQYNSTYRVVSVLNVLHQDWLNGKEYKCKVSNKALPAPIEKTISKAKGQPREPQVYTLPPSRDELTKNQVSLTCLVRGFYPSDIVVEWESNGQPENNYKTTPPVLDSDGSFFLYSKLTVDKSRWQQGNVFSCSVMHEALHNHYTQKSLSLSPGK | 1.3 fold | 4.3 fold
M3A_08 (other, EU numbering) CPPCPAPELLGGPSVFLFPPKPKDTLMISRTPEVTCVVEDVSHEDPEVKFNWYVDGVEVHNAKTKPREEQYNSTYRVVSVLPVLHQDWLNGKEYKCKVSNKALPAPIEKTISKAKGQPREPQVYTLPPSRDELTKNQVSLTCLVKGFYPSDITVEWESNGQPENNYKTTPPMLDSDGSFFLYSKLTVDKSRWQQGNVFSCSVMHEALHNHYTQKSLSLSPGK | 1.7 fold | 5.6 fold
T3A_11 (other, EU numbering) CPPCPAPELLGGPSVFLFPPKPKDTLMISRTPEVTCVVVDVSHEDPEVKFNWYVDGVEVHNAKTKSREEQYNSTYRVVSVLTVLHQDWLDGKEYKCKVSNKVLPVPIEKTISKAKGQPREPQVYTLPPSRDELTKNQVSLTCLVKGFYPSDIAVEWESNGQPENNYKTTPPVLDSDGSFFLYSKLTVDKSRWQQGNVFSCSVMHEALHYHYTQKSLSLSPGK | 1.3 fold | 4 fold
M3A_21 (other, EU numbering) CPPCPAPELLGGPSVLLFPPKPKDTLMISRTPEVTCVVEDVSHEDPEVKFNWYVDGVEVHNAKTKPREEQYNSTYRVVSVLPVLHQDWLNGKEYKCKVSNKALPAPIEKTISKAKGQPREPQVYTLPPSRDELTKNQVSLTCLVKGFYPSDIVVEWESNGQPENNYKTTPPVLDSDGSFFLYSKLTVDKSRWQQGTVFSCSVMHEALHNHYTQKSLSLSPGK | 2.6 fold | 8.4 fold
M3A_12 (other, EU numbering) CPPCPAPELLGGPSVFLFPPKPKDTLMISRTPEVTCVVVDVSHEDPEVKFNWYVDGVEVHNAKTKPREEQYNSTYRVVSVLTVLHQDWLDGKEYKCKVSNKALPAPIEKTISKAKGQPREPQVYTLPPSRDELTKNRVSLTCLVKGFYPSDIAVEWESNGQPENNYKTTPPVLDSDGSFFLYSKLTVDKSRWQQGDVFSCSVMHEALHSHYTQKSLSLSPGK | 1.1 fold | 3.4 fold
T3A_34 (other, EU numbering) CPPCPAPELLGGPSVFLFPPKPKDTLMISRTPEVTCVVEDVSHEDPEVKFNWYVDGVEVHNAKTKPREEQYNSTYRVVSVLTVLHQDWLNGKEYKCKVSNKALPAPIEKTISKAKGQPREPQVYTLSPSRDELTKNQVSLTCLVKGFYPSDIVVEWESNGQPENNYKTTPPVLDSDGSFFLYSKLTVDKSRWQQGNVFSCSVMHEALHNHYTQKSLSLSPGK | 1.4 fold | 4.6 fold
M3A_35 (other, EU numbering) CPPCPAPELLGGPSVFLFPPKPKDTLMISRTPEVTCVVEDVSHEDPEVKFNWYVDGVEVHNAKTKPREEQYNSTYRVVSVLTVLHQDWLDGKEYKCKVSNKALPAPIEKTISKAKGQPREPQVYTLPPSRDELTKNQVSLTCLVKGFYPSDIAVEWESNGQPENNYKTTPLVLDSDGSFFLYSKLTVDKSRWQQGNVFSCSVMHEALHNHYTQKSLSLSPGK | 1.1 fold | 3.7 fold
